Experimental data reported in article doi:10.1101/2024.07.08.602401 (bioRxiv, 2024).
Residue numbers refer to the chain shown, from its start.

B1: 3H4v31 IgG1 (antibody, V domains shown)
VH: EVQLQESGPELVKPGASVKIPCKASGYTFTDYNMDWVKQSHGKSLEWIGDINPNNGGTIYNQKFKGKATLTVDKSSSTAYMELRSLTSEDTAVYYCARPDSAQYRWNWYFDVWGTGTTVTVSS
VL: DIVITQSPSSMYASLGERVTITCKASQDINSYLSWFQQKPGKSPKTLIYRANRLVDGVPSRFSGSGSGQDYSLTISSLEYEDMGIYYCLQYDEFPLTFGAGTKLELK
B2: wildtype 3H4 IgG1 (antibody, V domains shown)
VH: B1 VH with S101Y, A102Y, Q103G, Y104S, R105S, W106Y, N107G
VL: B1 VL

Legend:
HLA-E-VL9 complex = HLA-E-VL9 complex (Homo sapiens, HLA-E*01:03, strain); assay: BLI
[1] = target: HLA-E-… single chain trimer on transfected 293T cells (Homo sapiens HLA-E*01:03 assumed; …); assay: flow cytometry on cells
[2] = target: HLA-E-[…] single chain trimer on transfected 293T cells (Homo sapiens HLA-E*01:03 assumed; …); assay: flow cytometry on cells

Binder | Kd (HLA-E-VL9 complex) | binding result [1] | binding result [2]
B1 | 11.5 nM |  | 
B2 |  | binds | binds
